Test: yeast display, Sf9 membrane polyspecificity reagent, FACS + sequencing; frameworks hold sequencing errors
In short: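 Nanobodies from a synthetic yeast display library (Saccharomyces cerevisiae BJ5465), induced 36–48 hours with galactose, were stained 1 hour at 4 °C with 10% biotinylated, detergent-solubilized Sf9 membrane reagent, enriched on streptavidin microbeads, then FACS-sorted. Anti-HA (expression) and streptavidin (reagent binding) fluorescence set low and high (top ~1%) gates. Polyreactivity labels come from the gate of origin. Genes were colony-PCR amplified, MiSeq 2 × 250 sequenced and filtered by CDR length.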

Sequence	polyreactivity (PSR sort gate)
QVQLVESGGGLVQAGGSLRLSCAASGFTFPWNVMGGYRQAPGKERELVAAITYDGGGTYADSVKGRFTISRDNAKNTVYLQMNSLKPEDTAVYYCNADLIYGEEYDYWGQGTQVTVSS	low polyreactivity
QVQLVESGGGLVQAGGSLRLSCAASGFTFPWYAMGWYRQAPGKERELVAAINTGGSTYYADSVKGRFTISRDNAKNTVYLQMNSLKPEDTAVYYCATLGRYRYLNTYYWGSHDYWGQGTQVTVSS	high polyreactivity
QVQLVESGGGLVQAGGSLRLSCAASGFTFPWYTMGWYRQAPGKERELVAAINSRGGSTYYADSVKGRFTISRDNAKNTVYLQMNSLKPEDTAVYYCATRSFGRMDYWGQGTQVTVSS	high polyreactivity
QVQLVESGGGLVQAGGSLRLSCAASGFTFPYYAMGWSRQAPGKERELVAAITSSGTITYYADSVKGRFTISRDNAKNTVYLQMNSLKPEDTAVYYCAARFSSTRYLQWYYYWGQGTQVTVSS	high polyreactivity
QVQLVESGGGLVQAGGSLRLSCAASGFTFPYYAMGWYRQAPGKERELVAAISKSGGSTYYADSVKGRFTISRDNAKNTVYLQMNSLKPEDTAVYYCAAQGGSKYRGYYYWGQGTQVTVSS	high polyreactivity
QVQLVESGGGLVQAGGSLRLSCAASGFTFPYYAMGWYRQAPGKERELVAAISWSGGSTNYADSVKGRFTISRDNAKNTVYLQMNSLIPEDTAVYYCATLPGYSMDFWGQGSQVTVSS	high polyreactivity
QVQLVESGGGLVQAGGSLRLSCAASGFTFPYYAMGWYRQAPGKERELVADITSGGGTNYADSVKGRFTISRDNAKNTVYLQMNSLKPEDTAVYYCAADAYHQGMDYWGQGTQVTVSS	low polyreactivity
QVQLVESGGGLVQAGGSLRLSCAASGFTFPYYAMGWYRQSPGKERELVASISRRGGSTYYADSVKGRFTISRDNANNSVYLQMKSLKPEDTAVYYCAADGSRGRWTFDYWGQGTQVTVSS	high polyreactivity
QVQLVESGGGLVQAGGSLRLSCAASGFTFQAYAMGWYRQAPGKERELVAAINFSTGRTYYADSVKGRFTISRDNAKNTVYLQMNSLKPEDTAVYYCAADGSWTRSYDFDYWGQGTQLTVSS	high polyreactivity
QVQLVESGGGLVQAGGSLRLSCAASGFTFQEYAMGWYRQAPGKERELVAVISSSGVRTYYADSVKGRFTISRDNAKNTVYLQMNSLKPEDTAVYYCAARRYHYIPSTKGNYWGQGTQVTVSS	high polyreactivity
QVQLVESGGGLVQAGGSLRLSCAASGFTFQFYAMGWYRQAPGKERELVARISESGSRTYYADSVKGRFTISRDNAKNTVYLQMNSLKPEDTAVYYCAADNPYLGRKFDYWGQGTQVTVSS	high polyreactivity
QVQLVESGGGLVQAGGSLRLSCAASGFTFQFYAMGWYRQAPGKESELVASIRSGVGTYYADSVKGRFTISRDNAKNTVYLQMYCVKPEDTAVYYCNAVYNRFSRSYDYWGQGTQVTVSS	high polyreactivity
QVQLVESGGGLVQAGGSLRLSCAASGFTFQNYAMGWYSQAPGKERELVAAITYSGGSTYYADSVKGRFTISRDNAKNPVYLQMHSLKPEDTAVYYCAKKASYWWGYEYWGQGTQVTVSS	low polyreactivity
QVQLVESGGGLVQAGGSLRLSCAASGFTFQNYVMGWYRQAPGKERELVAAINSGGRTYYADSVKGRFTISRDNAKNTVYLQMNSLKPEDTAVYYCNAVQPATYKYRSHVIEYDYWGQGTQVTVSS	high polyreactivity
QVQLVESGGGLVQAGGSLRLSCAASGFTFQYKAMGVYRQAPGQERELVAAISRGGGRTYYADSVKGRFTISRDNAKNTVYLQMNSLKPEDTAVYYCNVLNYSSRHYLFSYDYWGQGTQVTVSS	high polyreactivity
QVQLVESGGGLVQAGGSLRLSCAASGFTFQYYAMGWYRQAPGKERELVAAINWSGGRTYYADSVKGRFTISRDNAKNTVYLQMNSLKPEDTAVYYCAATRSFSGGYGYVSYDYWGQGTHVTVSS	high polyreactivity
QVQLVESGGGLVQAGGSLRLSCAASGFTFQYYAMGWYRQAPGKERELVAAISRSGGSTYYADSVKGRFTISRDNAKNTVYLQMNSLKPEDTAVYYCNAGRYASGKYDYWGQGTQVTVSS	high polyreactivity
QVQLVESGGGLVQAGGSLRLSCAASGFTFQYYAMGWYRQAPGKERELVAAISWSGGRTYYADSVKGRFTISRDIAKNTVYLQLNSLKPEDNAVYYCAASYIVYPARYEDEGDYWGQGTQVTVSS	high polyreactivity
QVQLVESGGGLVQAGGSLRLSCAASGFTFQYYAMGWYRQAPGKERELVAAISWSGGRTYYADSVKGRFTISRDNAKNSVYLQMNSLKPVDTAVYYCAAQWYKWAYNNTLLRYYYWGQGTQVTVSS	high polyreactivity
QVQLVESGGGLVQAGGSLRLSCAASGFTFQYYAMGWYRQAPGKERELVAVISRSGGRTYYADSVKVRFTISRDNAKNTVYLQMNSLKPEDTAVYYCAALSQPGQSDDKQYDYWGQGTQVTVSS	high polyreactivity
QVQLVESGGGLVQAGGSLRLSCAASGFTFQYYAMGWYRQEPGKERELVAAISWGGGSTYYADSVKGRFTISRDNAKNTVYLQMNSLKPEDTAVYYCNAYEYLSAGYDYWGQGTQVTVSS	low polyreactivity
QVQLVESGGGLVQAGGSLRLSCAASGFTFQYYVMGWYRQAPGKERELVAAISWSGGSTYYADSVKGRFSISRDNAKNTVYLQMNSLKPEDTAVYYCAAEYDEFLVRFGVWYWFDYWGQGTQVTVSS	high polyreactivity
QVQLVESGGGLVQAGGSLRLSCAASGFTFRANAMGWYRQAPGKERELFATISRGGPTNYADSVKGRFTISRDNAKNTVYLQMNSLKPADTAVYYCAASFSPYHTDRGDYWGQGTQVTVSS	high polyreactivity
QVQLVESGGGLVQAGGSLRLSCAASGFTFRAYAMGSYRQAPGKERELVAAISTGGGSTYYADSVKGRFTISRDNAKNTVYLQMNSLKPEDTAVYYCNALPQRRYYYWGQGTQVTVSS	high polyreactivity
QVQLVESGGGLVQAGGSLRLSCAASGFTFRAYAMGWYRQAPGKERELVAAISSGGGRTYYADSVKGRFTISRDNAKNTVYLQMNSLKPEDTAVYYCAADNYPGTRYDYWGQGTQVTVSS	high polyreactivity
QVQLVESGGGLVQAGGSLRLSCAASGFTFRAYAMGWYRQAPGKERELVAGISGSGGRTYYADSVKGRFTISRDNAKNTVYLQMNSLKPEDTAVYYCAAEYRLYGYQYDYWGQGTQVTVSS	high polyreactivity
QVQLVESGGGLVQAGGSLRLSCAASGFTFRAYAMGWYRQAPGKERELVATITRSGGSTFYADSVKGRFTISRDNAKNTVYLQMNSLKPEDTAVYYCAAVYRFPCRYAWYKYDDWGQGTQVTVSS	high polyreactivity
QVQLVESGGGLVQAGGSLRLSCAASGFTFRAYTMGWYRQAPGKERELVAAITYSGGPTYYADSVKGRFTISRDNAKNTVYLQMNSLKPEDTAVYYCAKRGWALSEYYYWGQGTQVTVSS	high polyreactivity
QVQLVESGGGLVQAGGSLRLSCAASGFTFRDYAMGWYRPAPGKERELVAAITRSGGRTYYADSVKGRFTISRDNAKNTVYLQMNSLKPEDTAVYYCAAQLPYYGYDYWGQGTQVTVSS	low polyreactivity
QVQLVESGGGLVQAGGSLRLSCAASGFTFRFNAMGWYRQAPGKERELVAAIRQSGGSTYYADSVKGRFTISRDTAKNTVSLQMNSLKPEDTAVYYCATGRSRIRNFGYWGQGTQVTVSS	high polyreactivity

Reference: the nanobody polyreactivity screen of Harvey et al. (2022)
